From US20200247855A1, “THERAPY AND DIAGNOSTICS” (OXFORD UNIVERSITY INNOVATION LIMITED, priority 2017, published 2020)
“Also recorded” adds a separate entry of the source.

Columns and labels:
[1] = system: human CCL5 together with CXCL8, CXCL1, CCL3 or CCL2; test: Biolayer interferometry polyvalent binding (association with CCL5, then CCL5 plus second chemokine); details: BLI, wavelength shift in association 2
Excerpt: FIG. 10. Polyvalent binding of CC and CXC chemokines to two-warhead evasins. […] This was followed by association with CCL5+CXCL8 (light grey trace), or with CCL5+CXCL1 (dark grey trace) or CCL5+CCL3 (black trace) (association 2), and then dissociated in buffer (dissociation).
FIG. 11. Polyvalent binding of CC and CXC chemokines to two-warhead evasins. […] This was followed by association with CCL5+CXCL8 (light grey trace), or with CCL5+CXCL1 (dark grey trace) or CCL5+CCL2 (black trace) (association 2), and then dissociated in buffer (dissociation).
The ability of 2-warhead evasins to engage in polyvalent binding of CC and CXC chemokines was further determined.

[2] = molecular target: T1, CCL17_HUMAN (Homo sapiens, UniProt Q92583); test: Biolayer interferometry (BLI) binding
T1 sequence (Q92583 24-94): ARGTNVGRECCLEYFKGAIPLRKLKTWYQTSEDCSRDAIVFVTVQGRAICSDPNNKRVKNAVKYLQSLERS
Procedure, shortened: (§1)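 First, His-tagged tick CKBP is immobilised on a Ni-NTA tip. Second, chemokine is applied at 300 nM to screen for binding. Third, positive pairs are titrated with varying chemokine doses and association/dissociation fits give Kd in molar units.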

[3] = molecular target: CCL11_HUMAN (Homo sapiens, UniProt P51671); test: Biolayer interferometry (BLI) binding
Procedure, shortened: as §1

[4] = molecular target: CCL2_HUMAN (Homo sapiens, UniProt P13500); test: Biolayer interferometry (BLI) binding
Procedure, shortened: as §1

[5] = molecular target: T2, CCL4_HUMAN (Homo sapiens, UniProt P13236); test: Biolayer interferometry (BLI) binding
T2 sequence (P13236 24-92): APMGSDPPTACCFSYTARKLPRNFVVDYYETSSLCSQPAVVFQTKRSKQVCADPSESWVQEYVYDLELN
Procedure, shortened: as §1

[6] = molecular target: T3, CCL18_HUMAN (Homo sapiens, UniProt P55774); test: Biolayer interferometry (BLI) binding
T3 sequence (P55774 21-89): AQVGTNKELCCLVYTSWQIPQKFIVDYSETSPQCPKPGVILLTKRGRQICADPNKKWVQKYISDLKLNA
Procedure, shortened: as §1

[7] = molecular target: T4, CCL5_HUMAN (Homo sapiens, UniProt P13501); test: Biolayer interferometry (BLI) binding
T4 sequence (P13501 24-91): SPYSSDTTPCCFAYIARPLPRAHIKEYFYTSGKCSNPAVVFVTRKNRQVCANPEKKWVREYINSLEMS
Procedure, shortened: as §1

[8] = molecular target: T5, CCL3_HUMAN (Homo sapiens, UniProt P10147); test: Biolayer interferometry (BLI) binding
T5 sequence (P10147 24-92): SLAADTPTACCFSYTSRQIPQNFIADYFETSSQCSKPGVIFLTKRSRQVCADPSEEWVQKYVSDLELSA
Procedure, shortened: as §1

[9] = molecular target: T6, CCL8_HUMAN (Homo sapiens, UniProt P80075); test: Biolayer interferometry (BLI) binding; details: read-out: Kd, CCL8_HUMAN
T6 sequence (P80075 24-99): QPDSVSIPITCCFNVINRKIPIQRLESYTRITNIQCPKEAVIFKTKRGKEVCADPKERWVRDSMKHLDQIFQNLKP
Procedure, shortened: as §1

[10] = molecular target: T7, CCL22_HUMAN (Homo sapiens, UniProt O00626); test: Biolayer interferometry (BLI) binding
T7 sequence (O00626 25-93): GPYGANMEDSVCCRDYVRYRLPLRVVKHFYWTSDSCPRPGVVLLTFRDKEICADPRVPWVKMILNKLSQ
Procedure, shortened: as §1

[11] = molecular target: CCL3L1_HUMAN (Homo sapiens, UniProt P16619); test: Biolayer interferometry (BLI) binding
Procedure, shortened: as §1

[12] = molecular target: T8, CCL4L1_HUMAN (Homo sapiens, UniProt Q8NHW4); test: Biolayer interferometry (BLI) binding
T8 sequence (Q8NHW4 24-92): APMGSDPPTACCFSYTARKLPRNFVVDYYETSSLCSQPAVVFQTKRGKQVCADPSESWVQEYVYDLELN
Procedure, shortened: as §1

[13] = molecular target: T9, CCL14_HUMAN (Homo sapiens, UniProt Q16627); test: Biolayer interferometry (BLI) binding
T9 sequence (Q16627 20-93): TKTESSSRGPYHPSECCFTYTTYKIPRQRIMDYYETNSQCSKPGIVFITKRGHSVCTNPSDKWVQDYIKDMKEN
Procedure, shortened: as §1

[14] = molecular target: CCL13_HUMAN (Homo sapiens, UniProt Q99616); test: Biolayer interferometry (BLI) binding
Procedure, shortened: as §1

[15] = molecular target: T10, CCL1_HUMAN (Homo sapiens, UniProt P22362); test: Biolayer interferometry (BLI) binding
T10 sequence (P22362 24-96): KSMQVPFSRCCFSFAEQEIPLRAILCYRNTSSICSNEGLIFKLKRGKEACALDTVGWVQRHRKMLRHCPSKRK
Procedure, shortened: as §1

[16] = molecular target: CCL7_HUMAN (Homo sapiens, UniProt P80098); test: Biolayer interferometry (BLI) binding
Procedure, shortened: as §1

[17] = system: chemokines; details: list of chemokines bound, from the literature [18,20-22]; cited from earlier work
[18] = molecular target: CCL20_HUMAN (Homo sapiens, UniProt P78556); test: Yeast surface display (YSD) FACS binding
Procedure, shortened: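 Yeast clones displaying tick peptides were re-tested by FACS with labelled chemokine. Binding = % of peptide-expressing yeast above a background threshold set with streptavidin-Alexa647 alone; the mean percent shift was used where several clones were isolated. Confirmed binding ("YES") required >3-fold over background mean fluorescence intensity.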

[19] = molecular target: CXCL12_HUMAN (Homo sapiens, UniProt P48061); test: Yeast surface display (YSD) FACS binding; details: yeast surface display
Procedure, shortened: (§2)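 Yeast clones displaying tick peptides were re-tested by FACS with labelled chemokine detected by streptavidin-Alexa conjugate. Binding was scored as % of peptide-expressing cells above a background set with streptavidin-Alexa alone, averaged over independent clones. In the screen tables, >3-fold over background mean fluorescence intensity was scored as binding.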

[20] = molecular target: T11, CXCL11_HUMAN (Homo sapiens, UniProt O14625); test: Yeast surface display (YSD) FACS binding; details: FACS re-test; mean percent shift where several clones
T11 sequence (O14625 22-94): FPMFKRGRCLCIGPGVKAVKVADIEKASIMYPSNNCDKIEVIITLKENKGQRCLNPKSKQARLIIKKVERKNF
Procedure, shortened: as §2

Sequence of CCL13_HUMAN (Q99616 17-98): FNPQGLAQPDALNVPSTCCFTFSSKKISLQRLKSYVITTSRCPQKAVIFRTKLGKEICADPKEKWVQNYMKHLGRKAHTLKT
Sequence of CCL11_HUMAN (P51671 24-97): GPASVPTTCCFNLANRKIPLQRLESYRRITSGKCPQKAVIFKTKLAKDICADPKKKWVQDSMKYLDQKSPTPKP
Sequence of CCL3L1_HUMAN (P16619 24-93): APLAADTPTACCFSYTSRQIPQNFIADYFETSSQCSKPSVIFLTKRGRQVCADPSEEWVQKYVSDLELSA
Sequence of CCL7_HUMAN (P80098 24-99): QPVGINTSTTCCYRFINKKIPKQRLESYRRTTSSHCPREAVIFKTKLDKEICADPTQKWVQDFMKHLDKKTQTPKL
Sequence of CCL2_HUMAN (P13500 24-99): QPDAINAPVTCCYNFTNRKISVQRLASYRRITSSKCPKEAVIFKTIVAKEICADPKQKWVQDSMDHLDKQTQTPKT
Sequence of CCL20_HUMAN (P78556 27-96): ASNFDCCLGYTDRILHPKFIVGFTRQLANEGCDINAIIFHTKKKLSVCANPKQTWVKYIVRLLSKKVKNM
Sequence of CXCL12_HUMAN (P48061 22-93): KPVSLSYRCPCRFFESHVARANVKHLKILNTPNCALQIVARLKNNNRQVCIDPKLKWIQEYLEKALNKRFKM

B1: SEQ ID NO: 81: two-warhead evasin: P1156_IXORI linked via GGGGS linker to P1243_AMBAM (protein)
chain: ADDDNELFTVQYCGMNCTKDEGGTWTGCTGKKEGCKCYHESGKNYGLCLSTEYTDFSQYGNPSDSEIEAAKPKRSDTLSHGGGGSRNHTEDNSTEYYDYEEARCACPARHLNNTNGTVLKLLGCHYFCNGTLCTAPDGYPCYNLTAQQVRTLTTYPNTSCAVGVCMKGTCVKNGTMEQCFKTP
modifications: hybrid polypeptide
notes: two-warhead evasin: P1156_IXORI linked via GGGGS linker to P1243_AMBAM
- Polyvalent (simultaneous) binding of CC and CXC chemokines [1]: can associate simultaneously with CCL5 and either CXCL8 or CXCL1

B2: SEQ ID NO: 73: two-warhead evasin: P991_AMBCA linked via GGGGS linker to P1156_IXORI (protein)
chain: ENGEGTTQPDYDNSTDYYNYEDFKCTCPAPHLNNTNGTVMKPIGCYYTCNVTRCTAPDTYPCYNLTEHQAKNLTTSPTTLCAVGNCDHGICVPNGTKELCFKAPNLEEGGGGSADDDNELFTVQYCGMNCTKDEGGTWTGCTGKKEGCKCYHESGKNYGLCLSTEYTDFSQYGNPSDSEIEAAKPKRSDTLSH
modifications: hybrid polypeptide
notes: two-warhead evasin: P991_AMBCA linked via GGGGS linker to P1156_IXORI
- Polyvalent (simultaneous) binding of CC and CXC chemokines [1]: can associate simultaneously with CCL5 and either CXCL8 or CXCL1

B3: SEQ ID NO: 80: two-warhead evasin: P1156_IXORI linked via GGGGS linker to P991_AMBCA (protein)
chain: ADDDNELFTVQYCGMNCTKDEGGTWTGCTGKKEGCKCYHESGKNYGLCLSTEYTDFSQYGNPSDSEIEAAKPKRSDTLSHGGGGSENGEGTTQPDYDNSTDYYNYEDFKCTCPAPHLNNTNGTVMKPIGCYYTCNVTRCTAPDTYPCYNLTEHQAKNLTTSPTTLCAVGNCDHGICVPNGTKELCFKAPNLEE
modifications: hybrid polypeptide
notes: two-warhead evasin: P1156_IXORI linked via GGGGS linker to P991_AMBCA
- Polyvalent (simultaneous) binding of CC and CXC chemokines [1]: can associate simultaneously with CCL5 and either CXCL8 or CXCL1

B4: P974_AMBCA: tick CKBP, Amblyomma cajennense; ACA-01 stated identical (protein)
chain: ENTQQEEQDYDYGTDTCPFPVLANKTNKAKFVGCHQKCNGGDQKLTDGTACYVVERKVWDRMTPMLWYECPLGECKNGVCEDLRKKEDCRKGNGEEK
modifications: Amblyomma cajennense
notes: tick CKBP, Amblyomma cajennense; ACA-01 stated identical
- Kd [2]: 70.6 nM
- Kd [3]: 17 nM
- Kd [4]: 93 nM
- Kd [5]: 30.2 nM
- Kd [6]: 17 nM
- Kd [7]: 160 nM
- Kd [8]: 7.97 nM
- Kd [9]: 2.58 nM
- Kd [10]: 16.5 nM
- Kd [11]: 13.1 nM
- Kd [12]: 23.2 nM
- Kd [13]: 49.1 nM
- Kd [14]: 22.9 nM
- Kd [15]: 70.5 nM
- Kd [16]: 41.2 nM
- Previously described chemokine binding [17]: CCL11, CCL24,; also recorded: CCL26, CCL2,; also recorded: CCL8, CCL7

B5: P546_AMBCA: tick CKBP, Amblyomma cajennense (protein)
chain: ENTQQEEEDYDYGTDTCPFPVLANKTNKAKFVGCHQKCNGGDQKLTDGTACYVVERKVWDRMTPMLWYSCPLGECKNGVCEDLRKKEECRKGNGEEK
modifications: Amblyomma cajennense
- Kd [2]: 70 nM
- Kd [3]: 8.7 nM
- Kd [4]: 83 nM
- Kd [5]: 27 nM
- Kd [6]: 16 nM
- Kd [8]: 15 nM
- Kd [9]: 1.3 nM
- Kd [10]: 27 nM
- Kd [11]: 15 nM
- Kd [12]: 8.9 nM
- Kd [13]: 28 nM
- Kd [14]: 13 nM
- Kd [15]: 160 nM
- Kd [16]: 90 nM

B6: P1015_AMBCA: tick CKBP, Amblyomma cajennense (protein)
chain: EEAPGPAPGCGEPEPTPPKPRRHGIVTNVNSCNSTILVWNGKEFPALCKVRCPHKSYRVSDFEPCLKFTNRRFLQERKDETPYKCKLGFCRHGTCITSEHSRKVPCKVPADRLDPSE
modifications: Amblyomma cajennense
- Binding to CCL20_HUMAN, YSD [18]: YES (An arbitrary threshold of >3 fold over background mean fluorescence intensity was chosen to describe confirmed re-tests. Where binding was detected data are indicated as “YES”)
- Binding to CXCL12_HUMAN, YSD [19]: YES (An arbitrary threshold of >3 fold over background mean fluorescence intensity was chosen to describe confirmed re-tests. Where binding was detected data are indicated as “YES”)

B7: P1078_IXORI: novel CXC-binding tick CKBP, Ixodes ricinus (protein, listed as Ixodes ricinus)
chain: GSKGSSAQQSSHDSIKAEFCETNCTMKTGGKWTQCHGGCFCVHVGNETVGRCIKLDGDYDYPSSKHEE
- Chemokines bound in yeast surface display and % cells over threshold fluorescence: CXCL11_HUMAN [20]: CXCL11_HUMAN 38%

B8: P1090_IXORI: novel CXC-binding tick CKBP, Ixodes ricinus (protein, listed as Ixodes ricinus)
chain: GSKELSGPESSENSIEAAFCDTNCTEGTDGVWSGCSAGCFCVHVGNSTVGRCMTFNGVDGG
- Chemokines bound in yeast surface display and % cells over threshold fluorescence: CXCL11_HUMAN [20]: CXCL11_HUMAN 32%

B9: P675_IXORI: novel CXC-binding tick CKBP, Ixodes ricinus (protein, listed as Ixodes ricinus)
chain: GSNQLSGPQSSANSNDAVFCDTNCTQGTDGAWSGCRGDCFCVHVGNSTEGRCIELIGDFDYSTPGAED
- Chemokines bound in yeast surface display and % cells over threshold fluorescence: CXCL11_HUMAN [20]: CXCL11_HUMAN 55%

B10: P942_IXORI: novel CXC-binding tick CKBP, Ixodes ricinus (protein, listed as Ixodes ricinus)
chain: NQLSGPQSSANSNEAVFCDTNCTQGTDEAWSGCRGDCFCVYVGNSTEGRCMMLSGDFDYSTPGAED
- Chemokines bound in yeast surface display and % cells over threshold fluorescence: CXCL11_HUMAN [20]: CXCL11_HUMAN 37%
